These are literature values, as cited in article PMC3758474.

Data set [1] has as its target Grb7 SH2 (Homo sapiens) (UniProt Q14451).
The target in data set [2] is erbB2 pY1139 peptide pY1139 peptide (Homo sapiens) (UniProt P04626). The experiment in a line: ITC.

The Kd is the equilibrium constant for the complex coming apart. For Grb7 SH2 (from UniProt Q14451), the Kd in data set [1] was 11 µM; in data set [2] it was 2.28 µM.
